Entries after “also recorded” stand apart in the source; their conditions may differ.
System: chicken fibroblast cell line SL29
Assay: Cell attachment assay, fibroblasts on protein-coated solid support
Format: cell-based
Details: for SL29 fibroblast attachment to coated substrate (words): CT coated at 20 μg/ml, binding fragments at 0.75 μM, non-binding at three times that, 1 hour; for spreading of SL29 cells on substrate: coated at 0.75 μM
Procedure: In the cell attachment assays, a single cell suspension was allowed to settle for a fixed period of time onto a solid support that has been coated with the different CT-derived proteins to be tested for cell attachment (Friedlander, et al., J. Cell Biol. 107: 2329-2340 (1988)). After removing the unbound and loosely bound cells by washing, the attachment and morphology of those cells remaining on the dish were analyzed.
Solid supports, consisting of a circular array of CT or CT:GST fusion proteins bound to a dish, were prepared as follows for the cell attachment assay.
For the initial study, non tissue-culture treated polystyrene plates (Falcon 1008) were spotted with 2 μl of a 0.5 to 1.5 μM solution of CT in PBS for 30 minutes to coat a specific area on the dish with CT. CT was isolated from chicken brain or from fibroblast culture supernatant as described in Crossin, PNAS 88: 11403-11407 (1991) and Hoffman et al., J. Cell Biol. 106: 519-532 (1988). CT was placed in a circular array near the center of the dish and incubated at 37° C. for 30 minutes. After CT had adsorbed to the dish, the central portion of the dish was washed once with 250 μl of 20% (w/v) BSA in PBS. Non-specific binding sites on the dish were then blocked with 250 μl of 20% (w/v) BSA in PBS by incubation for 2 to 3 hours at room temperature.
For the subsequent study with the CT:GST fusion proteins, non tissue-culture treated polystyrene plates (Falcon 1008) were spotted with 2 μl of a 0.5 to 1.5 μM solution of CT:GST fusion protein in PBS as prepared in Example 5.A.2 or GST in PBS for 30 minutes to coat a specific area on the dish with CT:GST fusion protein or GST. The proteins to be tested were placed in a circular array near the center of the dish and incubated at 37° C. for 30 minutes. After the proteins adsorbed to the dish, the central portion of the dish was washed once with 250 μl of 20% (w/v) BSA in PBS. Non-specific binding sites on the dish were then blocked with 250 μl of 20% (w/v) BSA in PBS by incubation for 2 to 3 hours at room temperature.
The chicken fibroblast cell line SL29 (ATCC CRL 1590) was grown to confluence in Dulbecco's Minimum Essential Medium (DMEM; Gibco-BRL, Gaithersburg, Mass.) with 10% (v/v) fetal calf serum (FCS; Gibco-BRL) with penicillin and streptomycin. The cells were passaged the night prior to the assay and seeded at a density of 1:2. Cells were harvested in calcium, magnesium-free Hank's balanced salt solution (CMF-HBSS, Gibco-BRL) with 20 mM Hepes buffer and 5 mM EDTA. Harvested cells were washed in attachment buffer (CMF-HBSS with 10 mM Hepes, 1 mM CaCl2, 1 mM MgCl2, 0.1 mM MnCl2, and 2% (w/v) bovine serum albumin (BSA)) three times. The number of cells was quantitated by counting the cells in a hemocytometer. The cells were resuspended in attachment buffer to a density of 6×10^5 cells/ml.
Chicken fibroblasts, DRG, and solid supports (dishes) coated with CT for use in the cell attachment assays were prepared as described in Examples 5.A.2-4, respectively. The chicken fibroblasts and DRG at a density of 6×10^5 cells/ml were added to the prepared dishes and incubated at 37° C. in 5% CO2 for 1 hour. The dishes were then washed three times in PBS with gentle swirling to remove unattached cells, fixed in 1% glutaraldehyde in PBS, and viewed by phase contrast microscopy. The number of bound cells was determined using a 10× objective with an eyepiece reticle. The number of cells was determined in four fields for each fusion protein dot as the number of cells bound per […]. CT was tested in triplicate. The number of cells bound for CT was expressed as the average of the twelve measurements±standard deviation […].
CT, coated at a concentration of 20 μg/ml, was used as a solid support for SL29 fibroblast attachment. […] Fragments of CT were generated using the pGEX fusion protein system, as described in Example 1. The cell attachment assay was performed essentially as described above for the cell attachment assay to intact CT. […]

Molecule	SL29 fibroblast attachment to coated substrate (words)	spreading of SL29 cells on substrate	SL29 fibroblast attachment to coated substrate (words) (listed as Ctfn6)	SL29 fibroblast attachment to coated substrate (words) (listed as sixth repeat)
CTfg: CT:GST fusion protein, entire fibrinogen domain, residues 1570-1810 of SEQ ID NO 4 (protein, left off: a dimerising Fc or GST) SMRSKMIQTVFTTTGLLYPYPKDCSQALLNGEVTSGLYTIYLNGDRTQPLQVFCDMAEDGGGWIVFLRRQNGKEDFYRNWKNYVAGFGDPKDEFWIGLENLHKISSQGQYELRVDLRDRGETAYAVYDKFSVGDAKTRYRLRVDGYSGTAGDSMTYHNGRSFSTFDKDNDSAITNCALSYKGAFWYKNCHRVNLMGRYGDNNHSQGVNWFHWKGHEYSIQFAEMKLRPSSFRNLEGRRKRA	robust SL29 cell attachment was supported; also recorded: readily attached; also recorded: attached well	little or no spreading		
CTfn6: CT:GST fusion protein, fibronectin type III repeat VI, residues 1318-1398 of SEQ ID NO 4 (protein, left off: a dimerising Fc or GST) VVGSPKGISFSDITENSARVSWTPPRSRVDSYRVSYVPITGGTPNVVTVDGSKTRTKLVKLVPGVDYNVNIISVKGFEESE	robust SL29 cell attachment was supported; also recorded: supports both fibroblast and neuronal cell attachment	little or no spreading	support fibroblast and neuronal cell attachment	fibroblast attachment activity was localized to the sixth repeat
CTfn3: CT:GST fusion protein, fibronectin type III repeat III, residues 774-864 of SEQ ID NO 4 (protein, left off: a dimerising Fc or GST) LDAPSQIEAKDVTDTTALITWSKPLAEIEGIELTYGPKDVPGDRTTIDLSEDENQYSIGNLRPHTEYEYEVTLISRRGDMESDPAKEVFVT	robust SL29 cell attachment was supported; also recorded: readily attached; also recorded: attached well	exhibited cell spreading; also recorded: spreading of cells was observed		

Source: patent US6482410B1, “Cytotactin derivatives that stimulate attachment and neurite outgrowth, and methods of making same” (The Scripps Research Institute, priority 1994, dated 2002)
